Values belong to the molecule of their own block, whether it stands above or below them. Non-standard residues stand in square brackets, D forms with d. No end group written: not given here. pS = N[C@@H](COP(=O)(O)O)C(=O)O
What was measured:
[1] = system: T1, 9CREB ILSRRPSYR (non-phosphorylated peptide)
T1 sequence: ILSRRPSYR

[2] = system: T2, peptide #1 KRREILSRRPS(p)YR (derived from CREB protein)
T2 sequence: KRREILSRRPSYR

[3] = system: T3, peptide #2 KRREILSRRPSYR (non-phosphorylated CREB peptide)
T3 sequence: KRREILSRRPSYR

[4] = system: T4, peptide #3 ILSRRPS(p)YR (p9CREB)
T4 sequence: ILSRRPSYR

[5] = system: T5, peptide #4 ILSRRPEYR (9ECREB)
T5 sequence: ILSRRPEYR

[6] = biological target: purified recombinant rabbit GSK-3 (glycogen synthase kinase-3) (rabbit); test: cell-based or functional assay
[7] = biological target: purified recombinant rabbit GSK-3 (glycogen synthase kinase-3) (rabbit); test: in vitro kinase assay of purified GSK-3 with PGS-1 substrate and 32P-ATP, Lineweaver-Burk analysis (competitive inhibition)

Molecule: purified recombinant rabbit GSK-3 (glycogen synthase kinase-3)
- time course of peptide phosphorylation by GSK-3 [1]: 9CREB and 9ECREB completely failed to be phosphorylated by GSK-3
- kinetic property (phosphorylation by GSK-3) [2]: A substrate
- kinetic property (phosphorylation by GSK-3) [3]: Not a substrate
- kinetic property (phosphorylation by GSK-3) [4]: A substrate
- time course of peptide phosphorylation by GSK-3 [4]: only the phosphorylated peptide, p9CREB, was a substrate for GSK-3
- time course of peptide phosphorylation by GSK-3 [5]: 9CREB and 9ECREB completely failed to be phosphorylated by GSK-3

- IC50, inhibition of GSK-3 (in vitro kinase assay) [6]: 190 µM
- Ki [7]: 76 µM
Molecule: KEAPPAPPQ[pS]P [peptide #8 …(p)P]

- IC50, inhibition of GSK-3 (in vitro kinase assay) [6]: 250 µM
Molecule: KEEPPAPPQ[pS]P [peptide #7 …(p)P (patterned after HSF-1 protein)]

- IC50, inhibition of GSK-3 (in vitro kinase assay) [6]: 330 µM
- IC50, inhibition of GSK-3 phosphorylation of PGS-1 substrate (32P incorporation) [6]: 150 µM
Molecule: KRREILARRP[pS]YR [peptide #5 …(p)YR]

Source: patent publication US20020147146A1
